Assay results as given in patent publication US20190262327A1, “COMBINATION OF A BACE INHIBITOR AND AN ANTIBODY OR ANTIGEN-BINDING FRAGMENT FOR THE TREATMENT OF A DISORDER ASSOCIATED WITH THE ACCUMULATION OF AMYLOID BETA” (ASTRAZENECA AB, priority 2016, published 2019).
Numbering of substitutions follows the chain as printed.

B1: Abet0322b: optimized anti-Aβ1-42 clone derived from Abet0144-GL (protein)
scFv (part 1 of 2): EVQLLESGGGLVQPGGSLRLSCAASNEEFQYNPMWWVRQAPGKGLEWVSVIGSSGGATVYADAVKGRFTISRDNSENTLYLQMNSLRAEDTAVYYCAREWMDHSRPYYYYGMDVWGQGTLVTVSS
scFv (part 2 of 2): SYELTQPPSVSVSPGQTASITCSGHNLGDKFASWYQQKPGQSPVLVIYRDDKRPSEIPERFSASNSGHTATLTISGTQATDEADYYCSSQDTVTRVFGGGTKLTVL
modifications: left off: small tags and cut ends
notes: optimized anti-Aβ1-42 clone derived from Abet0144-GL
B2: Abet0323b: optimized anti-Aβ1-42 clone derived from Abet0144-GL (protein)
scFv (part 1 of 2): EVQLLESGGGLVQPGGSLRLSCAASTSTFQEDTMWWVRQAPGKGLEWVSVIGPNPKNNAYADSVKGRFTISRDNSKNTLYLQMNSLRAEDTAVYYCAREWMDHSRPYYYYGMDVWGQGTLVTVSS
scFv (part 2 of 2): B1 scFv (part 2 of 2) with G28E, E56G, I57V, T104I
modifications: left off: small tags and cut ends
notes: as for B1
B3: Abet0328: optimized anti-Aβ1-42 clone derived from Abet0144-GL (protein)
scFv (part 1 of 2): EVQLLESGGGLVQPGGSLRLSCAASRDPFKADTMWWVRQAPRKRLEWVSVIGAHTTNSAYADSVKGRFTISRDNSKNTLYLQMNSLRAEDTAVYYCAREWMDRSRPYYYYGMDVWGQGTLVTVSS
scFv (part 2 of 2): B1 scFv (part 2 of 2) with A18V, H25R, G28E, E56G, I57V
modifications: left off: small tags and cut ends
notes: as for B1
B4: Abet0329: optimized anti-Aβ1-42 clone derived from Abet0144-GL (protein)
scFv (part 1 of 2): EVQLLESGGGLVQPGGSLRLSCAASTFNLKRETMWWVRQAPGKGLEWVSVIGSHQERTSYADSVKGRFTISRDNSKNTLYLQMNSLRAEDTAVYYCAREWMDHSRPYYYYGMDVWGQGTLVTVSS
scFv (part 2 of 2): B1 scFv (part 2 of 2) with L27V, G28S, F31W, A32M, S33T, E56G
modifications: left off: small tags and cut ends
notes: as for B1
B5: Abet0332: optimized anti-Aβ1-42 clone derived from Abet0144-GL (protein)
scFv (part 1 of 2): EVQLLESGGGLVQPGESLRLSCAASSDSWHTDIMWWVRQAPGKRLEWVSVIGNSNKKIAYADSVKGRFTISRDNSKNTLYLQMNSLRAEDTAVYYCAREWMDHSRPYYYYGMDVWGQGTLVTVSS
scFv (part 2 of 2): SYELTQPPSVSVSPGQTASITCSGHNIGAKWVSWYQQKPGQSPILVIYRDDKRPSGIPERFSASNSGHTATLTISGTQATDEADYYCQAQGQVTRSFGGGTKLTVL
modifications: left off: small tags and cut ends
notes: as for B1
B6: Abet0342: optimized anti-Aβ1-42 clone derived from Abet0144-GL (protein)
scFv (part 1 of 2): EVQLLESGGGLVQPGGSLRLSCAASGFDFRRSVMWWVRQAPGKGLEWVSVIGAQTQNKAYADSVKGRFTISRDNSKNTLYLQMNSLRAEDTAVYYCAREWMDHSRPYYYYGMDVWGQGTLVTVSS
scFv (part 2 of 2): B1 scFv (part 2 of 2) with G28E, E56G, H68D, T80M, S88Q, S89A, T92S, V93T
modifications: left off: small tags and cut ends
notes: as for B1
B7: Abet0343: optimized anti-Aβ1-42 clone from VH1:VH2:VL3 recombination library (protein)
scFv (part 1 of 2): B6 scFv (part 1 of 2) with D28N, R30N, R31H, S32Q, A53K, Q54T, T55N, Q56E, K58I
scFv (part 2 of 2): B1 scFv (part 2 of 2) with S1Q, Y2S, E3V, G28E, P39S, E56G
modifications: left off: small tags and cut ends
notes: optimized anti-Aβ1-42 clone from VH1:VH2:VL3 recombination library
B8: Abet0344: optimized anti-Aβ1-42 clone derived from Abet0144-GL (protein)
scFv (part 1 of 2): EVQLLESGGGLVQPGGSLSLSCAASGFTFSVYTMWWVRQAPGKGLEWVSVIGGNETRKAYADSVKGRFTISRDNSKNRLYLQMNSLRAEDTAVYYCAREWMDHSRPYYYYGMDVWGQGTLVTVSS
scFv (part 2 of 2): B1 scFv (part 2 of 2) with S1Q, Y2S, E3V, G28E, P39S, E56G, S88A, S89T, T92N, V93F
modifications: left off: small tags and cut ends
notes: as for B1
B9: Abet0368: optimized anti-Aβ1-42 clone derived from Abet0144-GL (protein)
scFv (part 1 of 2): B6 scFv (part 1 of 2) with R30G, R31P, V33P, A53K, Q54D, K58S, A59T, N77D, R87K
scFv (part 2 of 2): B1 scFv (part 2 of 2) with G28E, A32T, P39S, E56G, T77A
modifications: left off: small tags and cut ends
notes: as for B1
B10: Abet0370: optimized anti-Aβ1-42 clone derived from Abet0144-GL (protein)
scFv (part 1 of 2): EVQLLESGGGLVQPGGSLRLSCAASGFHFPMSAMWWVRQAPGKGLEWVSVIGETPERQAYADSVKGRFTISRDNSKSTLYLQMNSLRAEDTAVYYCAREWMDHSRPYYYYGMDVWGQGTLVTVSS
scFv (part 2 of 2): SYELTQPPSVSVSPGQTASITCTTPHFNSKFASWYQQKPGQSPVLVIYRDDKRPSGIPERFSASNSGHTATLTISGTQAMDEADYYCQAQDSTTRVFGGGTRLTVL
modifications: left off: small tags and cut ends
notes: as for B1
B11: Abet0371: optimized anti-Aβ1-42 clone derived from Abet0144-GL (protein)
scFv (part 1 of 2): EVQLSESGGGLVQPGGSLRLSCAASHDAFPFDTMWWVRQAPGKGLEWVSVIGSSGGTTVYADSVKGRFTVSRDNSKNTLYLQMNSLRAEDTAVYYCAREWMDHSRPYYYYGMDVWGQGTLVTVSS
scFv (part 2 of 2): B1 scFv (part 2 of 2) with L27I, G28S, D29S, K30S, F31W, A32V, E56G
modifications: left off: small tags and cut ends
notes: as for B1
B12: Abet0372: optimized anti-Aβ1-42 clone derived from Abet0144-GL (protein)
scFv (part 1 of 2): EVQLLESGGGLVQPGGSLRLSCAASSDMFNIETMWWVRQAPGKGLEWVSVIGKGMNNVSYADSVKGRFTISRDNSKNTLYLQMNSLRAEDTAVYYCAREWMDHSRPYYYYGMDVWGQGTLVTVSS
scFv (part 2 of 2): B1 scFv (part 2 of 2) with G28E, E56G
modifications: left off: small tags and cut ends
notes: as for B1
B13: Abet0373: optimized anti-Aβ1-42 clone derived from Abet0144-GL (protein)
scFv (part 1 of 2): B6 scFv (part 1 of 2) with A23V, R30E, G44R, A53S, Q54G, T55K, Q56T, K58I, A59T
scFv (part 2 of 2): B1 scFv (part 2 of 2) with G28E
modifications: left off: small tags and cut ends
notes: as for B1
B14: Abet0374: optimized anti-Aβ1-42 clone derived from Abet0144-GL (protein)
scFv (part 1 of 2): B6 scFv (part 1 of 2) with D28Q, R30K, R31D, S32T, V33P, A53D, T55N, Q56H, N57K, V114A
scFv (part 2 of 2): B1 scFv (part 2 of 2) with S13T, D29G, E56G, S66F
modifications: left off: small tags and cut ends
notes: as for B1
B15: Abet0378: optimized anti-Aβ1-42 clone; amber stop codon at VL position 91 read as glutamine (protein)
scFv (part 1 of 2): B6 scFv (part 1 of 2) with D28P, R30E, R31T, S32D, V33I, A53T, Q54N, Q56D, K58V
scFv (part 2 of 2): B1 scFv (part 2 of 2) with G28E, E56G
modifications: left off: small tags and cut ends
notes: optimized anti-Aβ1-42 clone; amber stop codon at VL position 91 read as glutamine
B16: Abet0379: optimized anti-Aβ1-42 clone derived from Abet0144-GL (protein)
scFv (part 1 of 2): EVQLLESGGGLVQPGGSLRLSCAASGFDFAETPLWWVRQAPGERLEWVSVIGSNQNKTAYADSVKGRFTISRDNSKDTLYLQMNSLRAEDTAVYYCAREWMDHSRPYYYYGMDVWGQGTLVTVSS
scFv (part 2 of 2): QSVLTQPPSVSVSPGQTASITCSGHNLEDKFASWYQQKSGQSPVLVIYRDDKRPSGIPERFSASNSGHTATLTISGTQATDGADYYCATQDNFTRVFGGGTKLTVL
modifications: left off: small tags and cut ends
notes: as for B1

target: T1, human Amyloid beta 1-42 peptide (Homo sapiens, UniProt P05067); test: Surface Plasmon Resonance kinetic profiling of purified scFv (ProteOn); type: binding; conditions: biotinylated human Amyloid beta 1-42 on streptavidin chip
T1 construct: biotinylated human Amyloid beta 1-42 peptide (rpeptide, USA; cat: A1117); purchased rPeptide, USA A1117; host or cells: synthetic peptide
T1 sequence (P05067 672-713): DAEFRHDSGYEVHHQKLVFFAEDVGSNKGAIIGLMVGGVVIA
Description: Surface Plasmon Resonance was used to analyse the purified scFv clones that had shown significant improvement in binding affinity for human Amyloid beta 1-42 peptide over the parent sequence, Abet0144-GL, in the HTRF™ epitope competition assay (sections 1.3-1.6). Briefly, the ProteOn Protein Interaction Array System (BioRad, USA) was used to assess the kinetic parameters of the interaction between each purified scFv and synthetically produced human Amyloid beta 1-42 peptide. These experiments were performed essentially as described by Karlsson et al. (Karlsson et al., 1991).
The affinity of binding between each test scFv and human Amyloid beta 1-42 was estimated using assays in which biotinylated synthetic human Amyloid beta 1-42 peptide (rPeptide, USA; cat: Al 117) was non-covalently bound via a biotin/streptavidin interaction to a proprietary streptavidin chip (NTA 176-5021) at five different surface densities. The chip surface was regenerated between cycles by a single 60 second injection of 10 mM Glycine pH 2.0 to remove scFv bound to the peptide.
Each scFv at 100-200 nM was sequentially passed over the peptide surface for a sufficient amount of time to observe sensorgrams that could be fitted to an appropriate binding model with confidence. An irrelevant scFv blank was subtracted from the main dataset to reduce the impact of any buffer artefacts or non-specific binding effects. An appropriate binding model was then fitted to the data.

| Molecule | ka [M⁻¹ s⁻¹] | kd [s⁻¹] |
| --- | --- | --- |
| B1 | 203000 | 0.000165 |
| B2 | 210000 | 0.000188 |
| B3 | 141000 | 0.000103 |
| B4 | 197000 | 0.000138 |
| B5 | 329000 | 0.000129 |
| B6 | 136000 | 5.73e-05 |
| B7 | 120000 | 2.25e-05 |
| B8 | 77500 | 5.73e-05 |
| B9 | 187000 | 9e-05 |
| B10 | 119000 | 7.76e-05 |
| B11 | 357000 | 0.000272 |
| B12 | 243000 | 0.000176 |
| B13 | 185000 | 8.92e-05 |
| B14 | 256000 | 6.04e-05 |
| B15 | 136000 | 6.41e-05 |
| B16 | 134000 | 4.39e-05 |
